Measured values reported in patent US9481871B2, “Nucleic acid encoding a polpeptide having aminotransferase activity, vectors and host cells comprising the nucleic acid” (KANEKA CORPORATION, priority 2010, dated 2016).

Test: Activity for 1-benzyl-3-pyrrolidinone and optical purity of generated (S)-1-benzyl-3-aminopyrrolidine
Assay type: biochemical
Settings: 57 mM 1-benzyl-3-pyrrolidinone, 57 mM (S)-1-phenethylamine, pH 7.0, 30° C., 2 hours, cell-free extract
Method: (Method for Determination of Activity for 1-benzyl-3-pyrrolidinone and Method for Measurement of Optical Purity of Generated (S)-1-benzyl-3-aminopyrrolidine)
Activity to catalyze transamination by acting on optically active (S)-1-phenethylamine and 1-benzyl-3-pyrrolidinone, so as to generate acetophenone and (S)-1-benzyl-3-aminopyrrolidine was examined. Each reagent was added to each cell-free extract obtained in Example 5 so that the final concentrations were as specified in the following composition of the substrate solution. After 2 hours of reaction at 30° C., the reaction solution was analyzed by HPLC under the following conditions.
[Composition of Substrate Solution]
[High Performance Liquid Chromatography Analysis Conditions] <Quantitative Analysis> • Column: Finepak SIL C18-T (JASCO Corporation) • Eluent: distilled water 945 mL/acetonitrile 555 mL/KH2PO4 7.5 g/SDS 2.16 g (adjusted with H3PO4 to pH 3.6) • Flow rate: 1 mL/minute • Detection: 254 nm • Column temperature: 40° C. <Analysis of Optical Purity> […]

B1: TAT: polypeptide having transamination activity from Arthrobacter sp. KNK04-25; amino acid sequence SEQ ID NO: 1 (protein, listed as Arthrobacter sp.)
chain: MSAITLESSLATFTRRFDVSAKLTELGKEVVPGGYSRNSFNFGPHAIYVESGDGAYISTVEGHRLLDLNNNFTVNVLGHNHPSVQRTLRGSIETGVSFGNPVALETELAQLLVERIPSIERVQFSCSASESCMSAVRVARAFTGRTKIAKFEGGYHGFTDPLQVSWHPDHDGDCGPDDAPKAIPDSGGIPAEDVANVVVLTQNDGEGTERILRAHASEIACVIVELESASGGLVTLEQDYVESLRELTSELGIVLIFDETVTLRAGYQGMQGDYGVAPDLTVMGKIIGGGFPLGAVGGSAEIMSVLESGLVSISGTHHGHKIALAAGISTMRELTQGAFDRLNGMATRVMEELNDWSSQRGSSFAVYGKGISHLAYGFMREPGLSIRTHRDYWRNFDGTGTQICSLELANRGFFPVARGDFSLSLPMSDDDITAFVETTKEIVTGIES
conversion rate to (S)-1-benzyl-3-aminopyrrolidine: 100% | optical purity of generated (S)-1-benzyl-3-aminopyrrolidine: 100 % e.e.
